Test results: PMC10352137, “Readout of histone methylation by Trim24 locally restricts chromatin opening by p53” (Nature Structural & Molecular Biology, 2023)

Biological target: T1, Flag-tagged TRIM24 N-terminal domain (amino acids 1-473) (mouse, UniProt Q64127 1-473)
T1 construct: TRIM24, mouse, N-terminal domain, amino acids 1-473; the recombinant constructs are numbered to residue 1051; also called amino-terminal region of the Trim24 protein; not shown: Flag, N-terminal, kept
T1 sequence (looked up): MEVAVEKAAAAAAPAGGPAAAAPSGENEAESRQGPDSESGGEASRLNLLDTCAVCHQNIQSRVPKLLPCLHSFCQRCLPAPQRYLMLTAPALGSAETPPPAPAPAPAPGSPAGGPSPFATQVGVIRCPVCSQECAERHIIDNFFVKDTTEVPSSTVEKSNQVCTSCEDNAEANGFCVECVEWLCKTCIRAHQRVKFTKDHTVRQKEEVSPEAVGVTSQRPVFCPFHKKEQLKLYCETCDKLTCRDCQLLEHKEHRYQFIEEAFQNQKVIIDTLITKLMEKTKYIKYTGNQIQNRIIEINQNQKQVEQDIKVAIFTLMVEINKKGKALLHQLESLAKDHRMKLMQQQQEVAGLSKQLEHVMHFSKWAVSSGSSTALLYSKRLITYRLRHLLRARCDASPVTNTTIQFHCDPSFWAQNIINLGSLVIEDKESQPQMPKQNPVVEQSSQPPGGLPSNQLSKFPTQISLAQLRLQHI
Test: pull-down; Flag-tagged TRIM24 domains (0.25 nmol) mixed with Strep-tagged p53 in equimolar ratios, anti-Flag or Strep-Tactin beads, 2 h at 4 °C, 50 mM HEPES pH 8.0, 150 mM NaCl; stained gel
Settings: both partners purified

B1: Strep-tagged mouse full-length p53 (natural protein, UniProt P02340 1-390, looked up)
chain: MTAMEESQSDISLELPLSQETFSGLWKLLPPEDILPSPHCMDDLLLPQDVEEFFEGPSEALRVSGAPAAQDPVTETPGPVAPAPATPWPLSSFVPSQKTYQGNYGFHLGFLQSGTAKSVMCTYSPPLNKLFCQLAKTCPVQLWVSATPPAGSRVRAMAIYKKSQHMTEVVRRCPHHERCSDGDGLAPPQHLIRVEGNLYPEYLEDRQTFRHSVVVPYEPPEAGSEYTTIHYKYMCNSSCMGGMNRRPILTIITLEDSSGNLLGRDSFEVRVCACPGRDRRTEEENFRKKEVLCPELPPGSAKRALPTCTSASPPQKKKPLDGEYFTLKIRGRKRFEMFRELNEALELKDAHATEESGDSRAHSSYLKTKKGQSTSRHKKTMVKKVGPDSD
notes: p53, mouse, full length; also called purified p53; Strep-tagged p53 full-length protein; source: Sf9 (Bac-to-Bac), purified (Strep-Tactin, heparin ion exchange, Superose 6 SEC); not shown: Strep-tag, N-terminal, kept
binding result: binds
